Laboratory results as given in patent US11029303B2, “PAH antibodies and uses thereof” (The Administrators of the Tulane Educational Fund, priority 2015, dated 2021).
“Also recorded” adds a separate entry of the source.

How the values were obtained:
Type in all cases: binding
[1] = Competitive flow cytometry of monoclonal yeast cells; conditions: soluble Phen versus 2-MePhen
Procedure: For flow cytometry, the yeast library was incubated in growth medium SD-CAA at 30° C. overnight for activation. The next day, activated yeast cells were diluted in induction medium SG/R-CAA at OD600=0.5, and cultured again at 30° C. for 16 hrs. After induction, 10^7 induced yeast cells (OD600=0.5) were washed twice with 0.5 ml wash buffer I (0.5% BSA supplemented with 2 mM EDTA), and once with 0.5 ml wash buffer II (0.5% BSA). Yeast cells were first incubated with 50 μl competitor (phenanthrene or 2-methylphenanthrene, 200 μM in PBS containing 1% DMSO) for 30 min with rotation at 25° C. An additional aliquot (50 μl) of biotinylated protein-conjugate (BSA-biotin, phen-BSA-biotin, or 2mp-BSA-biotin at concentrations between 1 and 100 nM) containing 2 μg/ml anti-myc antibody 9E10 was then added and the cells were incubated for another 30 min. Yeast cells were washed 3 times with wash buffer II and stained with 4 μg/ml goat-antimouse-PE (Life Technologies, Grand Island, N.Y.) and 10 μg/ml streptavidin-Alexa633 (Life Technologies, Grand Island, N.Y.) in the dark room at 4° C. for an hour. The stained yeast cells were washed three times with wash buffer II and resuspended in 1 ml PBS for flow-cytometry analysis. The selected yeast population was sorted into 2 ml pre-warmed YPD medium, and incubated at 30° C. without shaking for 30 min before transferring into 30° C. shaker for two days. The sorted pool was analyzed again by flow cytometry using the same staining procedure. […]
Yeast cells collected after 2nd sort were spread onto agar plates at various dilution level to obtain isolated single colonies. […] A total of 184 individual clones sorted from Pool 1 were picked and analyzed for their binding to Phen-BSA-Biotin in the presence of soluble Phen or 2-MePhen.

[2] = Competitive ELISA with purified scFv, ligand 9-MP; conditions: Phen-BSA coated plate; 5% DMSO
Procedure: (§1) Competitive ELISA was performed in 96 well high binding plates (Corning, Corning, N.Y.). Each well was coated with 2 μg/ml antigen at 4° C. overnight and blocked with 3% BSA. Antibody scFv was incubated in the antigen-coated well with or without soluble competitor, and the binding of scFv was accessed using anti-myc antibody (9E10) and goat-antimouse-HPR antibody (Sigma Aldrich, MO). The HRP signal was detected by adding Sureblue TMB microwell peroxidase substrate (KPL, Gaithersburg, Md.) and the reaction was stopped after 5 minutes using 1 M HCl. The incubation steps were performed at room temperature for an hour. […]
(§2) Competitive ELISA or indirect ELISA was performed in 96-well high binding plates (Corning, Corning, N.Y.). […] The HRP signal was detected by adding Sureblue TMB microwell peroxidase substrate (KPL, Gaithersburg, Md.) and the reaction was stopped after 5 min using 1N HCl. The quantified signals were measured by reading […] values from microplate photometer. […]
(§3) Since A10, D7 and G8 represent three distinct family based on the sequence alignment, the inventors next explored the binding characteristics of these three clones as models to of the antibodies present in the immune library. Purified scFv were prepared and analyzed by competitive ELISA for their abilities to recognize unsubstituted phenanthrene or methylated phenanthrenes, as shown in FIG. 55. […]

[3] = Competitive ELISA with purified scFv, ligand 2-MP; conditions: Phen-BSA coated plate; 5% DMSO; read-out: affinity (IC50)
Procedure: as §1, §2, §3

[4] = Cross-reactivity of scFv clones against EPA 16 PAHs (competitive ELISA); conditions: for cross-reactivity / inhibition by the 16 EPA PAHs: 50 μM PAH, less than 20% decrease = non-reactive
Procedure: (§4) Competitive ELISA was performed similar as described in Example 3, except that an anti-myc antibody (9E10) was added before applying goat-antimouse-HPR secondary antibody to detect myc-tag on scFv construct.
(§5) A real-world field sample is a complex mixture and contains a variety of PAH compounds. An understanding of the abilities of antibody to recognize various PAHs can greatly facilitate the development and application of these antibodies into field studies. In the final assessment, the inventors determined the cross-reactivity of these three scFv clones among 16 structurally related EPA priority PAH species via competitive ELISAs. First, the inventors inhibited the binding of scFv to the immobilized Phen-BSA by high concentrations (50 μM) of PAHs to determine if the scFv can recognize the ligand.

[5] = Competitive ELISA with purified scFv, ligand phenanthrene; conditions: Phen-BSA coated plate; 5% DMSO
Procedure: as §1, §2, §3

[6] = Cross-reactivity competitive ELISA, ligand indeno-[1,2,3-cd]-pyrene
Procedure: as §4, §5

[7] = Competitive ELISA with purified scFv, ligand 4-MP; conditions: Phen-BSA coated plate
Procedure: as §1, §2, §3

[8] = Competitive ELISA with purified scFv, ligand 3-MP; conditions: Phen-BSA coated plate; 5% DMSO
Procedure: as §1, §2, §3

[9] = Cross-reactivity competitive ELISA, ligand pyrene; conditions: ligand 200 μM to 0.091 μM; read-out: affinity (IC50)
Procedure: as §4, §5

[10] = Cross-reactivity competitive ELISA, ligand fluoranthene; conditions: ligand 200 μM to 0.091 μM; read-out: affinity (IC50)
Procedure: as §4, §5

[11] = Competitive ELISA with D7 in artificial seawater (ONR7a) and crude oil
Procedure: FIG. 74 is (A) a graph showing a comparison of competitive ELISA for phenanthrene, an abundant PAH in crude oil, in phosphate-buffered saline (ionic strength of serum) and ONR7a, an artificial environmental matrix that mimics seawater. The limit of detection of phenanthrene in this matrix is ˜1 μM. Compared with two buffer PBS and ONR7A (article seawater), the IC50s of two curves were no different than 2 fold.
FIG. 77 is a bar graph showing that the D7 antibody can detect the model PAH, phenanthrene in a background of crude oil (4 and 0.8 mL/L). At both concentrations of crude oil, the presence of 500 μM phenanthrene decreased the absorbance in the immunoassay by 30% (*, p<0.05).
The D7 antibody can detect phenanthrene in the presence of crude oil at concentrations similar to those found in oil spills (0.8-4 mL per liter of seawater). At both concentrations tested (0.8 and 4 mL crude oil/L of synthetic seawater), the D7 antibody was able to detect phenanthrene, as shown by the 30% decrease in absorbance in the competitive ELISA. This will form the basis for an ELISA to determine the measurement and degradation of PAHs in crude oil. (see FIG. 77).

IC50 [3] [µM]	IC50 [7] [µM]	IC50 [8] [µM]	IC50 ([6]; ligand 200 μM to 0.091 μM, read-out: affinity (IC50)) [µM]	IC50 [9] [µM]	IC50 [10] [µM]	Molecule	inhibition of binding to Phen-BSA-Biotin by soluble competitors [1]	recognition of 9-MP [2]	cross-reactivity / inhibition by the 16 EPA PAHs ([4]; listed as A10)	recognition of parent phenanthrene [5]	recognition of indeno-[1,2,3-cd]-pyrene [6]	cross-reactivity / inhibition by the 16 EPA PAHs [4]	affinity ([7]; 5% DMSO)	sensitivity for fluoranthene, indeno-[1,2,3-cd]-pyrene and pyrene relative to phenanthrenes [4]	decrease in absorbance in the immunoassay ([11]; 500 μM phenanthrene, crude oil 4 and 0.8 mL/L) [%]	activity in artificial seawater matrix (ONR7a) ([11]; ONR7a)
8.28						Clone A10: scFv, amino acid sequence SEQ ID NO: 37; binds methylated phenanthrenes, prefers 2-methylphenanthrene (protein) scFv: SAHAEAYLQQSGAELVKPGASVKLSCKASGYTFTSYWMHWVKQRPGQGLEWIGEINPRNGRSNYNEKFKNKATVTVDKYSNTAYMQLSSLTSDDSAVYYCTRDGGDYWGQGTTVTVSSGGGGSGGGGSGGGARGGGGSDIVLTQSHKFMSTSVGDRVSITCKASQDVGTAVAWYQQKPGQSPKLLIYWASTRHTGVPDRFTGSGSGTDFTLTISNVQSEDLADYFCQQYSSYPLTFGGGTKLEMKRAS	some tendency for the 2-MePhen over unsubstituted Phen	did not recognized	None of the 16 PAHs showed significant inhibition; also recorded: no cross-reactivity to other PAHs	did not recognized						
	0.94	14.4				Clone G8: scFv, amino acid sequence SEQ ID NO: 45; binds 4-methylphenanthrene most tightly (protein) scFv: SAHAEAYLQQSGAELVRPGTSVKVSCKASGYVFTNFLIEWVKQRPGQGLEWIGVINPGNGGAAYNEKFKGKAILTADKSSSTAYMQLSSLTSDDSAVYFCARLPPSYDYDGDIDYWGQGTTVTVSSGGGGSGGGGSGGGARGGGGSDLVLTQSPASLAVALGQRATISCRASKSVTTSGYSLMHWYRQKPGQPPKLLIYPASNLESGVPARFSGSGSGTDFTLNIHPVEEEDAATYYCQHSRELPWTFGGGTKLEIKRAS	unable to distinguish between the 2 soluble competitors				did not recognize	some cross-reactivity to other PAHs	sub-micromolar			
			1.5	1.5	1.5	Clone D7: scFv, amino acid sequence SEQ ID NO: 42; binds unmethylated and methylated phenanthrenes alike (protein) scFv: SAHAEAYLQQSGAELVRPGTSVKVSCKASGYAFTKYLIEWVKQRPGQGLEWIGVINPGSGSTSYNEKFRYKAILTADTSSSTAYMQLSSLTSDDSAVYFCATIPASYRSDSLDCWGQGTTVTVSSGGGGSGGGGSGGGARGGGGSDTTVTQSHKFMSTSVGDRVSITCKASQDVGTAVAWYQQKPGQSPKLLIYWASTRHTGVPDRFTGSGSGTDFTLTISNVQSEDLADYFCQQYSSYPWTFGGGTKLEMKRAS	unable to distinguish between the 2 soluble competitors							about 4 fold	30	active
